Experimental data from publication PMC2680971 (Journal of Molecular Biology, 2009).

B1: DC-SIGNR neck domain, 6.5 repeat polymorphic form, His2 tag (domain or fragment)
chain: KVPSSLSQEQSEQDAIYQNLTQLKAAVGELSEKSKLQEIYQELTQLKAAVGELPEKSKLQEIYQELTRLKAAVGELPEKSKLQEIYQELTRLKAAVGELPEKSKLQEIYQELTRLKAAVGELPEKSKLQEIYQELTELKAAVGELPEKSKLQEIYQELTQLKAAVE

Legend:
[1] = target: DC-SIGNR neck domain, 7.5 repeat form, His2 tag (human); test: SEC
SEC = target: the molecule itself; test: SEC

Row | Molecule | stoichiometry N [1] | stoichiometry N (SEC)
1 | DC-SIGNR neck domain, 7.5 repeat form, His2 tag (domain or fragment) | 4 | –
2 | B1 | – | 4
